Measured values as given in the supplement of paper PMC12042874.
± gives the uncertainty stated by the source.

Test: amyloid nucleation score (Sup35N fusion, yeast selection) (log enrichment); library NNK3; higher = more nucleation; inactive = no reads after selection
Outline: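 The nucleation score equals the log enrichment of output over input reads from DiMSum, centred on the mode score of non-aggregating sequences. It was computed only for sequences with 100 or more input reads. The reads came from Illumina sequencing of plasmid inserts from psi-negative yeast expressing Sup35N fused to peptides of 20 random codons, induced with 100 μM copper sulfate for 24 hours and grown 7 days at 30°C without adenine and uracil.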

Question: With LQQCFYMVNFFMLSSLAVLL as the substance, how does the amyloid nucleation score read?
Answer: inactive

Question: With LQSFPYQYIITR as the substance, how does the amyloid nucleation score read?
Answer: inactive

Question: Which amyloid nucleation score does the source give for LQSNFRSPTISGFTTEKVGK here?
Answer: inactive

Question: Which amyloid nucleation score does the source give for LQSSMSIYSQFWSVDSLFYE here?
Answer: 0.04 ± 0.66

Question: With LQVVNLSR as the substance, how does the amyloid nucleation score read?
Answer: inactive

Question: With LQWVRLVSRVQSTDCNLGAG as the substance, how does the amyloid nucleation score read?
Answer: inactive

Question: Which amyloid nucleation score does the source give for LQYFTYLGQCLKRETHHFLR here?
Answer: inactive

Question: Which amyloid nucleation score does the source give for LRASFWECLCCCVVR here?
Answer: 2.33 ± 0.073

Question: With LRFNVDAMFSTSVVRIQKCL as the substance, how does the amyloid nucleation score read?
Answer: inactive

Question: Which amyloid nucleation score does the source give for LRGMDYVCDEPLYVTLWVNR here?
Answer: inactive

Question: For LRIERQSAFSCILDM, which amyloid nucleation score is on record?
Answer: inactive

Question: For LRLTIMSGIRVPVFYEHSFM, which amyloid nucleation score is on record?
Answer: -0.443 ± 0.96

Question: With LRMGVNILLAMGCFSAYPGE as the substance, how does the amyloid nucleation score read?
Answer: 0.171 ± 0.39

Question: With LRMHWDTYERSVDTIASVVH as the substance, how does the amyloid nucleation score read?
Answer: inactive

Question: For LRMVTHMSVYDRNHLSW, which amyloid nucleation score is on record?
Answer: inactive

Question: For LRRGMMARFIVNVVRVN, which amyloid nucleation score is on record?
Answer: inactive

Question: Which amyloid nucleation score does the source give for LRRTIYFTDDRCLWLDFAPL here?
Answer: 0.272 ± 0.43

Question: With LRSSYQNLDPSVCQQFHLGE as the substance, how does the amyloid nucleation score read?
Answer: -0.075 ± 0.66

Question: With LRVPSPYIFYKSKGHNIGSL as the substance, how does the amyloid nucleation score read?
Answer: inactive

Question: With LSAADSMCGKRCLRGTP as the substance, how does the amyloid nucleation score read?
Answer: inactive

Question: Which amyloid nucleation score does the source give for LSCHTKETFPDDG here?
Answer: inactive

Question: With LSCMNRTQCHASFSLPL as the substance, how does the amyloid nucleation score read?
Answer: inactive

Question: For LSCPLVYSTSSFIK, which amyloid nucleation score is on record?
Answer: inactive

Question: With LSCVLTVGTKTLFRAQMTQV as the substance, how does the amyloid nucleation score read?
Answer: inactive

Question: For LSCYRVFSYCT, which amyloid nucleation score is on record?
Answer: inactive

Question: Which amyloid nucleation score does the source give for LSDLEDWRNYRWSKEDLKVE here?
Answer: inactive

Question: Which amyloid nucleation score does the source give for LSDYLGYDG here?
Answer: inactive

Question: For LSFCVVSTGRCAAMEN, which amyloid nucleation score is on record?
Answer: inactive

Question: Which amyloid nucleation score does the source give for LSFVCTEETHGTNDSAGYNF here?
Answer: inactive

Question: With LSFYTFGNNWTKRCNCPTAS as the substance, how does the amyloid nucleation score read?
Answer: inactive

Question: With LSGKTMVFFPKSNMRNNTRS as the substance, how does the amyloid nucleation score read?
Answer: inactive

Question: For LSGLESVRSSYDWVVGGWIS, which amyloid nucleation score is on record?
Answer: -0.329 ± 1.3

Question: With LSGNCKYRTLWFIGPYSHFC as the substance, how does the amyloid nucleation score read?
Answer: inactive

Question: With LSHAG as the substance, how does the amyloid nucleation score read?
Answer: inactive

Question: Which amyloid nucleation score does the source give for LSIVQD here?
Answer: -0.413 ± 1.1

Question: For LSIVRAGVRSGNRGELFRCR, which amyloid nucleation score is on record?
Answer: inactive

Question: With LSLFVGGAEGWVKGDPASEG as the substance, how does the amyloid nucleation score read?
Answer: 0.507 ± 0.25

Question: Which amyloid nucleation score does the source give for LSLLVTLG here?
Answer: inactive

Question: Which amyloid nucleation score does the source give for LSLRCEFSSASSGCTSGQRR here?
Answer: inactive

Question: With LSLWRWSVHS as the substance, how does the amyloid nucleation score read?
Answer: inactive

Question: For LSMFTFCRYPGCQRLDRKPY, which amyloid nucleation score is on record?
Answer: 1.23 ± 0.1

Question: For LSMPMAAGCFKHMPCAA, which amyloid nucleation score is on record?
Answer: -0.643 ± 1.7

Question: With LSPPLVSWGGPTVRMGKCSG as the substance, how does the amyloid nucleation score read?
Answer: inactive

Question: Which amyloid nucleation score does the source give for LSRCVPNDVGKAYMMKEKRK here?
Answer: inactive

Question: Which amyloid nucleation score does the source give for LSRFD here?
Answer: inactive

Question: Which amyloid nucleation score does the source give for LSRYSRSTIILEHWCDTDWY here?
Answer: 0.812 ± 0.24

Question: With LSSFIFCFSLYAVLTMGVVH as the substance, how does the amyloid nucleation score read?
Answer: inactive

Question: For LSSFRPSYEYYLRDISAMSW, which amyloid nucleation score is on record?
Answer: inactive

Question: With LSSIWKGLRGLFIFFWHIKK as the substance, how does the amyloid nucleation score read?
Answer: inactive

Question: With LSSWFHFLSNTATRQKVWRS as the substance, how does the amyloid nucleation score read?
Answer: inactive

Question: With LSVANQNCVKLDIVHM as the substance, how does the amyloid nucleation score read?
Answer: inactive

Question: For LSVDRL, which amyloid nucleation score is on record?
Answer: -0.632 ± 0.9

Question: With LSVSIGVVGF as the substance, how does the amyloid nucleation score read?
Answer: inactive

Question: Which amyloid nucleation score does the source give for LSWRRCA here?
Answer: inactive

Question: With LSWRTPISAMFDSWACGGGR as the substance, how does the amyloid nucleation score read?
Answer: inactive

Question: Which amyloid nucleation score does the source give for LSYCKRHIRRRLFVG here?
Answer: -0.208 ± 0.6

Question: With LTDDSCCPRR as the substance, how does the amyloid nucleation score read?
Answer: inactive

Question: For LTDRDDDSTHVRSPYSRLLW, which amyloid nucleation score is on record?
Answer: inactive

Question: Which amyloid nucleation score does the source give for LTFIMLCIS here?
Answer: 1.24 ± 0.12

Question: With LTICFVSYVTVGDAGTMTPR as the substance, how does the amyloid nucleation score read?
Answer: 1.62 ± 0.099

Question: With LTKYVVFSIY as the substance, how does the amyloid nucleation score read?
Answer: 1.16 ± 0.094

Question: With LTLLHRKRMVLRYCNFMLYL as the substance, how does the amyloid nucleation score read?
Answer: inactive

Question: Which amyloid nucleation score does the source give for LTQLTIIKTGLTCLMA here?
Answer: inactive

Question: For LTRRSRLWHMSSYTWKKDVI, which amyloid nucleation score is on record?
Answer: 0.084 ± 0.5

Question: For LTSCTATLCICCSRVVTVEI, which amyloid nucleation score is on record?
Answer: 1.24 ± 0.082

Question: Which amyloid nucleation score does the source give for LTSLSKSFCNNVHAYSDFLH here?
Answer: inactive
